Values of other authors as cited in publication PMC12635586.

What was measured:
GFRAL (Homo sapiens) = GFRAL (Homo sapiens) (UniProt Q6UXV0)
GFRAL (Homo sapiens), sequence (Q6UXV0 19-351): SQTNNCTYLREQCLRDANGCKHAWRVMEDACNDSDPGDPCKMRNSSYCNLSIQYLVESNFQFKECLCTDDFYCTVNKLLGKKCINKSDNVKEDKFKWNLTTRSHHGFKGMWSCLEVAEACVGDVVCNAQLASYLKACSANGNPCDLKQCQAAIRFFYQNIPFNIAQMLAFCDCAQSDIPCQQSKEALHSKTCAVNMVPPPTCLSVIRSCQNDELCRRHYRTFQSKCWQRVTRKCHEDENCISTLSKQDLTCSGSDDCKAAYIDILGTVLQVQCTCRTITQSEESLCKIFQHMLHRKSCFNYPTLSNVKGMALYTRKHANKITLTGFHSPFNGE

Interleukin-6, sequence (P05231 30-212): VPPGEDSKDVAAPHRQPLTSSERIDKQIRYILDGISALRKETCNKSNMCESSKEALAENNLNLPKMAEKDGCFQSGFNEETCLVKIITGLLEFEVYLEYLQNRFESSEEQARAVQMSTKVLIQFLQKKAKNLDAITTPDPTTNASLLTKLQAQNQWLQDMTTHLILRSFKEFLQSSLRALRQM
Clazakizumab, sequence (main, as listed by the source, chain 1 of 2): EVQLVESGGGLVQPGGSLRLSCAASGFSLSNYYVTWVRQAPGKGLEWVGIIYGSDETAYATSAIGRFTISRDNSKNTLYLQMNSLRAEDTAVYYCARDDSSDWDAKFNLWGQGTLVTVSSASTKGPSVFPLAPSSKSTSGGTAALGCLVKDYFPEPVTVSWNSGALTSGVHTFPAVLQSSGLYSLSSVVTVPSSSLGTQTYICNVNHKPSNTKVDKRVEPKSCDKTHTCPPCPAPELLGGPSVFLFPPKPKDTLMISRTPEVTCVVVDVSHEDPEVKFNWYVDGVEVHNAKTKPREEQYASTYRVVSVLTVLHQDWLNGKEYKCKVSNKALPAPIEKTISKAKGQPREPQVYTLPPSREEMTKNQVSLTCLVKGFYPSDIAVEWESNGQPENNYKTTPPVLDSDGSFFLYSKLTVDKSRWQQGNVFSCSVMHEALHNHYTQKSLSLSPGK
Clazakizumab, sequence (partner, as listed by the source, chain 2 of 2): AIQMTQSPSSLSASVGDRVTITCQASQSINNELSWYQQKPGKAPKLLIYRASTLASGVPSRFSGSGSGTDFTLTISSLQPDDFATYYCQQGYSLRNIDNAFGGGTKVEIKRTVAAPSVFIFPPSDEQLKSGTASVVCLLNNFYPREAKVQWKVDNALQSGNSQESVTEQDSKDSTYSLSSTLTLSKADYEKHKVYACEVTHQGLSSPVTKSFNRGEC
Growth differentiation factor-15, sequence (Q99988 195-308): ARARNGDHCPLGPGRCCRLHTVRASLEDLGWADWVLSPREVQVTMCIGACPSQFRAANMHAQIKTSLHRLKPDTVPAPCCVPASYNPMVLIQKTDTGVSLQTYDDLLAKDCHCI

| Kd (GFRAL (Homo sapiens)) [nM] | Kd (Clazakizumab) [nM] | Substance |
| --- | --- | --- |
| 8 |  | Growth differentiation factor-15 (from UniProt Q99988) |
|  | 0.004 | Interleukin-6 (from UniProt P05231) |
